Test results: US6210929A, “Fusion protein comprising a furin derivative or a derivative of a furin analogue and a heterologous sequence” (Baxter Aktiengesellschaft, priority 1995, dated 2001)

B1: r-furinΔTM-His: furin with transmembrane and cytoplasmatic part (amino acids 708 to 794) deleted, six histidine residues appended after amino acid 707; SEQ.ID.NO. 9 (protein)
chain: MELRPWLLWVVAATGTLVLLAADAQGQKVFTNTWAVRIPGGPAVANSVARKHGFLNLGQIFGDYYHFWHRGVTKRSLSPHRPRHSRLQREPQVQWLEQQVAKRRTKRDVYQEPTDPKFPQQWYLSGVTQRDLNVKAAWAQGYTGHGIVVSILDDGIEKNHPDLAGNYDPGASFDVNDQDPDPQPRYTQMNDNRHGTRCAGEVAAVANNGVCGVGVAYNARIGGVRMLDGEVTDAVEARSLGLNPNHIHIYSASWGPEDDGKTVDGPARLAEEAFFRGVSQGRGGLGSIFVWASGNGGREHDSCNCDGYTNSIYTLSISSATQFGNVPWYSEACSSTLATTYSSGNQNEKQIVTTDLRQKCTESHTGTSASAPLAAGIIALTLEANKNLTWRDMQHLVVQTSKPAHLNANDWATNGVGRKVSHSYGYGLLDAGAMVALAQNWTTVAPQRKCIIDILTEPKDIGKRLEVRKTVTACLGEPNHITRLEHAQARLTLSYNRRGDLAIHLVSPMGTRSTLLAARPHDYSADGFNDWAFMTTHSWDEDPSGEWVLEIENTSEANNYGTLTKFTLVLYGTAPEGLPVPPESSGCKTLTSSQACVVCEEGFSLHQKSCVQHCPPGFAPQVLDTHYSTENDVETIRASVCAPCHASCATCQGPALTDCLSCPSHASLDPVEQTCSRQSQSSRESPPQQQPPRLPPEVEAGQRLRAGHHHHHH
modifications: His6 tag
B2: CHO-r-furinΔCys-spacer-His: r-furinΔCys (to amino acid 585) with spacer Ala-Ala-Gly-Gly-Ala-Ala and six histidine residues; SEQ.ID.NO. 21 (protein)
chain: MELRPWLLWVVAATGTLVLLAADAQGQKVFTNTWAVRIPGGPAVANSVARKHGFLNLGQIFGDYYHFWHRGVTKRSLSPHRPRHSRLQREPQVQWLEQQVAKRRTKRDVYQEPTDPKFPQQWYLSGVTQRDLNVKAAWAQGYTGHGIVVSILDDGIEKNHPDLAGNYDPGASFDVNDQDPDPQPRYTQMNDNRHGTRCAGEVAAVANNGVCGVGVAYNARIGGVRMLDGEVTDAVEARSLGLNPNHIHIYSASWGPEDDGKTVDGPARLAEEAFFRGVSQGRGGLGSIFVWASGNGGREHDSCNCDGYTNSIYTLSISSATQFGNVPWYSEACSSTLATTYSSGNQNEKQIVTTDLRQKCTESHTGTSASAPLAAGIIALTLEANKNLTWRDMQHLVVQTSKPAHLNANDWATNGVGRKVSHSYGYGLLDAGAMVALAQNWTTVAPQRKCIIDILTEPKDIGKRLEVRKTVTACLGEPNHITRLEHAQARLTLSYNRRGDLAIHLVSPMGTRSTLLAARPHDYSADGFNDWAFMTTHSWDEDPSGEWVLEIENTSEANNYGTLTKFTLVLYGTAPEGLPVPPESSAAGGAAHHHHHH
modifications: spacer and His6 tag
notes: r-furinΔCys (to amino acid 585) with spacer Ala-Ala-Gly-Gly-Ala-Ala and six histidine residues; 21

How the values were obtained:
Boc-Arg-Val-Arg-Arg-AMC = test: AMC peptide substrate test (fluorogenic substrate test) of furin or fusion protein activity; type: biochemical; details: for Intensity of the fluorescent emission at 438 nm: supernatants of permanent CHO cell clones, 2 hours of incubation, 30° C.
Experimental: By the action of furin, AMC (7-amino-4-methyl coumarin) is cleaved from the substrate. […] The fluorescent spectroscopic detection of the furin or fusion protein activity was effected at 30° C. in stirred quartz cells in a test volume of 2 ml. 1.7 ml of 100 mM HEPES buffer (pH 7.4, 1 mM CaCl2 and 1 mM 2-mercaptoethanol) were mixed with 0.1 ml of a substrate solution (final substrate concentration in the test: 0.1 mM) and 0.2 ml of the sample. The fluorescence was excited at a wave length of 380 nm. After 2 hours of incubation, the fluorescent emission was measured at 438 nm (Table 1).
The supernatants of various permanent CHO-r-furinΔTM-His cell clones and, as the controls, of CHO-rvWF/r-furin cells and CHO cells were subjected to the AMC peptide substrate test. The intensity of the fluorescent emission at 438 nm reflects the activity.
The activity of CHO-r-furinΔTM-His cells from cell culture supernatants before their binding to the column matrix, the individual washing fractions as well as the eluate were determined by means of AMC peptide substrate test.
The influence of imidazole on the furin activity was determined.
For this, 1 ml of Ni^2 +-NTA matrix (Quiagen), equilibrated in serum-free cell culture medium was loaded at 4° C. with 10 ml of imidazole-free CHO-r-furinΔCys-spacer-10xHis cell culture supernatant, and, as the negative control, with conditioned medium of non-manipulated CHO cells, respectively. Then the matrix was washed three times at room temperature with serum-free cell culture medium, and subsequently the fluorogenic substrate was contacted at 30° C. with immobilized r-furinΔCys-spacer-10xHis. As the positive control, CHO-r-furinΔCys-spacer-10xHis cell culture supernatant was tested for its ability to react fluorogenic substrate in solution.

pro-vWF = test: Co-expression of pro-vWF and r-furin in CHO cells, Western blot of cell culture supernatants; type: cell-based, human
Source text: The expression plasmid for rvWF, phAct-vWF (FIG. 1), was co-transfected with the selection marker plasmid pSV-rdhfr (FIG. 1) in dhfr-deficient CHO cells, the efficiently pro-rvWF-expressing clone CHO-rvWF was selected under selection conditions, and this clone was sub-cloned to stability (Fischer et al., 1994. Febs Lett. 351:345-349). For a further analysis and for rvWF expression and function studies, the cells were at first washed with PBS several times, and subsequently, unless indicated otherwise, incubated in selection medium without serum, with a regular 24 hour medium exchange.
Approximately 40% of the rvWF secreted into the cell supernatant of CHO-rvWF was unprocessed (FIG. 2 II A). To increase the efficiency of the propeptide cleavage, the r-furin expression vector pSV-r-furink in the following was co-transfected with the selection marker plasmid pUCSV-neo into the CHO-rvWF cell clone. Under selection conditions (500 μg G418/ml), clones were identified which express r-furin in addition to rvWF (CHO-rvWF/r-furin; FIGS. 2 I A, B).
The detection of rvWF in the cell culture supernatant was effected by means of Western blot analysis (FIGS. 2 I A and II A). For this, 10 μl of reduced cell culture supernatant were separated by means of SDS-PAGE (Lammli, Nature 227:680-685, 1970), and subsequently the proteins were transferred to nitrocellulose membranes by means of the BioRad Mini Trans-Blot System (BioRad Laboratories, Richmond, Calif., USA). The Protoblot-System from Promega (Madison, Wis., USA) was used to visualize rvWF secreted into the cell culture supernatant. Rabbit anti-vWF serum (Order No. A 082) from Dakopatts (Glostrup, Denmark) was used as the antibody for vWF binding.
The detection of r-furin in the cell culture supernatant was also effected by means of Western blot analysis (FIGS. 2 I B and II B). r-Furin was visualized by using the anti-h-furin murine monoclonal antibody MON 148 (van Duijnhoven et al., Hybridoma 11: 71-86, 1992) and, as the second antibody, anti-murine IgG alkaline phosphatase conjugated goat serum (Sigma A 4656).

pro-rvWF = test: In vitro cleavage of pro-rvWF by r-furin or fusion protein, Western blot analysis; type: biochemical, human; details: for in vitro processing of pro-rvWF in mixed supernatants: CHO-rvWF/r-furin and CHO-rvWF supernatants 1:1, 37° C.
Experimental: CHO-rvWF, CHO-rvWF/r-furin, CHO-rvWF and CHO (at a ration of 1:1), as well as CHO-rvWF and CHO-rvWF/r-furin (at a ration of 1:1) were mixed accordingly and incubated at 37° C.
Aliquots of the reaction formulations were tested for processed vWF by means of Western blot analysis immediately before incubation and after mixing of the cell culture supernatants, respectively; further aliquots were taken at time intervals of 24 hours each and assayed.
For this, 20 ml of serum-free cell culture supernatant of CHO-rvWF cells, adjusted to 2 mM imidazole, were passed over the column. […] Samples of the cell culture supernatant which were not subjected to a protease treatment served as the controls.
The negative control, an unmanipulated CHO cell culture supernatant (without r-furinΔCys-spacer-10xHis) was processed in an analogous manner on the Ni^2+ -NTA matrix.
Aliquots of the reaction mixtures were taken at the beginning of the test as well as at various points of time and frozen.
The Fractogel EMD® tentacle gel was loaded with Ni^2+ ions according to the manufacturer's instructions and equilibrated with fresh serum-free cell culture medium. Subsequently, the column was loaded with serum-free CHO-r-furinΔCys-spacer-10xHis supernatant. Washing steps were effected by serum-free cell culture medium, containing increasing imidazol concentrations up to 40 mM. Subsequently, the pro-protein substrate was guided over the column as serum-free CHO supernatant.

rFX = test: FX activity by FX-Coatest-Kit (RVV activation, chromogenic substrate S-2337); type: biochemical, human
Experimental: For this, 50 μl of each supernatant were admixed with 50 μl of FX-deficient human plasma, and according to the protocol of the producer, rFX was reacted to rFXa with snake venom (RVV) in the presence of CaCl2 ; rFXa subsequently hydrolyses the chromogenic substrate (S-2337) and leads to the liberation of the yellow-coloured paranitroaniline. Since the amount of rFXa and the colour intensity are proportional to each other, the amount of rFX activatable to rFXa/ml cell culture supernatant can be determined with the help of a calibration straight line, interpolated from values of the plasma dilution series.

single-chain rFX = test: In vitro cleavage of the propeptide and processing of single-chain rFX, Western blot analysis; type: biochemical, human
Experimental: Aliquots each of the reactions were tested for processed rFX by means of Western blot analysis prior to incubation (t=0) and after various incubation periods (t=2, 4, 6 hours) (FIG. 10). The detection of rFX in the cell culture supernatants was effected by means of anti-human FX antiserum (FIG. 10A) and of a monoclonal antibody specific to the light chain of FX (FIG. 10B).

Molecule	Intensity of the fluorescent emission at 438 nm (Boc-Arg-Val-Arg-Arg-AMC)	processing of pro-vWF in co-expressing cells (pro-vWF; medium exchange every 8 hours, serum-free)	processing of pro-vWF in co-expressing cells (pro-vWF; serum-free 24 hour cell culture supernatants)	processing of pro-vWF in co-expressing cells (pro-vWF; serum-free 24 hour cell culture supernatants, listed as CHO rvWF/r-furin)	in vitro processing of pro-rvWF in mixed supernatants (pro-rvWF; 48 h and 96 h)	in vitro processing of pro-rvWF in mixed supernatants (pro-rvWF; after 24 hours)	INTENSITY (AMC peptide substrate test) (Boc-Arg-Val-Arg-Arg-AMC; 1st washing fraction of Ni2+-NTA column)	INTENSITY (AMC peptide substrate test) (Boc-Arg-Val-Arg-Arg-AMC; 2nd washing fraction of Ni2+-NTA column)	INTENSITY (AMC peptide substrate test) (Boc-Arg-Val-Arg-Arg-AMC; 3rd washing fraction of Ni2+-NTA column)	INTENSITY (AMC peptide substrate test) (Boc-Arg-Val-Arg-Arg-AMC; eluate from Ni2+-NTA matrix (buffer A containing 200 mM imidazole))	INTENSITY (AMC peptide substrate test) (Boc-Arg-Val-Arg-Arg-AMC; roller supernatant before binding to the Ni2+-NTA matrix)	processing of rpro-vWF on immobilized fusion protein (pro-rvWF; Ni2+ column, CHO-rvWF supernatant with 2 mM imidazole passed over, column eluate)	Activity (rFX; t = 6 hours, supernatants 1:1, 37° C.)	% Functional FX (rFX; t = 6 hours, from activity and ELISA antigen)	unspecific proteolytic activity (OD values) in mixture of CHO and CHO-r-furinΔTM-His supernatants (rFX; without rFX, % of the proteolytic activity)	processing of rFX (single-chain rFX)
CHO-rvWF/r-furin: supernatant or cells of CHO clone co-expressing rvWF and complete recombinant human furin (r-furin), used as source of r-furin	444	significant amounts of pro-rvWF	only the completely processed rvWF	completely processed	completely processed vWF	only a slight portion of unprocessed pro-vWF	–	–	–	–	–	–	–	–	–	–
B1	2524	–	–	–	–	–	340	280	121	2820	2664	only completely processed vWF	344 mU/ml	43%	less than 7%	–
B2	–	–	–	–	–	–	–	–	–	–	–	–	–	–	–	demonstrated
